Data taken from patent US20220002389A1.

B1: SW-1C10 (1C10 antibody produced in the cocoons of transgenic silkworms) (antibody, human IgG1, kappa, V domains shown)
VH: EVQLVESGGGVVQPGRSLRVSCVASGFMFSNYAMHWVRQTAGKGLEWVAIISNDGSDKYYADSVQGRFTVSRDNSQNTLFLQMSGLRPEDSGLYYCARDLDQTIPDLTAPAFEVWGQGTMVTVSS
VL: DIVMTQSPLSLAVTPGEPASISCRSSQSLLHSDGNNYLDWYLQKPGQSPQLLIYLTSNRASGVPDRFSGSGSGTDFTLKISRVEAEDVGVYFCMQSLQTWTFGQGTKVEIKR
modifications: N-glycans without core fucose (silkworm-produced)
B2: 293A-1C10 (1C10 antibody of 293A origin) (antibody, human IgG1, kappa, V domains shown)
VH: B1 VH
VL: B1 VL

Key:
[1] = molecular target: HIV-1 BaL strain envelope protein (gp120) on BaL-infected CEM.NKR-CCR5 (NKR24) cells (HIV-1 BaL strain); assay: flow cytometry on BaL-infected NKR24 cells; antibody at 20 µg/mL
[2] = molecular target: HIV-1 BaL strain envelope protein (gp120) on BaL-infected CEM.NKR-CCR5 (NKR24) cells (HIV-1 BaL strain); assay: flow cytometry on BaL-infected NKR24 cells; antibody at 100 µg/mL
[3] = molecular target: HIV-1 BaL strain envelope protein (gp120) on BaL-infected CEM.NKR-CCR5 (NKR24) cells (HIV-1 BaL strain); assay: cell-based or functional assay
[4] = molecular target: HIV-1 BaL strain envelope protein (gp120) on BaL-infected CEM.NKR-CCR5 (NKR24) cells (HIV-1 BaL strain); assay: flow cytometry on BaL-infected NKR24 cells; antibody at 0.8 µg/mL
[5] = molecular target: HIV-1 BaL strain envelope protein (gp120) on BaL-infected CEM.NKR-CCR5 (NKR24) cells (HIV-1 BaL strain); assay: flow cytometry on BaL-infected NKR24 cells; antibody at 0.032 µg/mL
[6] = molecular target: HIV-1 BaL strain envelope protein (gp120) on BaL-infected CEM.NKR-CCR5 (NKR24) cells (HIV-1 BaL strain); assay: flow cytometry on BaL-infected NKR24 cells; antibody at 0.16 µg/mL
[7] = molecular target: HIV-1 BaL strain envelope protein (gp120) on BaL-infected CEM.NKR-CCR5 (NKR24) cells (HIV-1 BaL strain); assay: flow cytometry on BaL-infected NKR24 cells; antibody at 4 µg/mL

Binder	MFI [1] [MFI]	MFI [2] [MFI]	IC50 (50% inhibitory concentration) of infection of TZM-bl cells by BaL virus, luciferase RLU; 'Dose at Y = 50' [3] [µg/mL]	MFI [4] [MFI]	MFI [5] [MFI]	MFI [6] [MFI]	MFI [7] [MFI]
B1	1640	1900	0.108	1260	779	1080	1440
B2	1780	1780	0.133	1290	983	1210	1530
